Experiment: yeast display, Sf9 membrane polyspecificity reagent, FACS + sequencing; frameworks hold sequencing errors
Outline: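 Nanobodies came from a synthetic yeast display library in Saccharomyces cerevisiae BJ5465, induced with galactose for 36–48 hours and stained for 1 hour at 4 °C with 10% biotinylated, detergent-solubilized Sf9 membrane reagent. Cells were enriched on streptavidin microbeads and then FACS-sorted, with low and high (top ~1%) gates set on anti-HA fluorescence for expression and streptavidin fluorescence for reagent binding. Each polyreactivity label reflects the gate a clone came from. Genes were amplified by colony PCR, sequenced by MiSeq 2 × 250 and filtered by CDR length.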

Sequence	polyreactivity (PSR sort gate)
QVQLVESGGGLVQAGGSLRLSCAASGSTFVLNAMGWYRQAPGKERELVAAINLDSGNTNYADSVKGRFTISRDNAKNTVYLQMNSLKPEDTAVYYCNTDVKFGGTAYDYWGQGTQVTVSS	low polyreactivity
QVQLVESGGGLVQAGGSLRLSCAASGSTFVLYAMGWDRQAPGKERELVAAISGGATTTYADSVKGRFTISRDNAKNTVYLQMNSLKPEDTAVYSCAADFSTFVVSGAAMDYWGQGTQVTVSS	low polyreactivity
QVQLVESGGGLVQAGGSLRLSCAASGSTFVLYAMGWYRQAPGKERELVADITWSGGSTYYADSVKGRFTISRDNAMNTVYLLMNSLKPEDTAVYYCAARYPWVYYDFDYWGQGTQVTVSS	low polyreactivity
QVQLVESGGGLVQAGGSLRLSCAASGSTFVLYAMGWYRQAPGKERELVAVISWSGGSTYYADSVKGRFTISRDNAKNTVYLQMNSLKPEDTAVYYCAKRYRVSYYPYADPYGYWGQGTQVTVSS	low polyreactivity
QVQLVESGGGLVQAGGSLRLSCAASGSTFVLYANGWYRQAPGKERELVAASTRRGGDTYYADSVKGRFTISRDNATNTVYLQMNSLKPEDTAVDYCATDYTTYGRYYYWGQGTQVTVSS	low polyreactivity
QVQLVESGGGLVQAGGSLRLSCAASGSTFVNNAMGWYRQAPGKERELVAAISKTGGRTRYADSVKGRFTISRDNAKNTVYLQMNSLKPEDTAVYYCAARYYGGGYNYWGQGTQVTVSS	high polyreactivity
QVQLVESGGGLVQAGGSLRLSCAASGSTFVPNAMGWYRQAPGKERELVAAITVDGDDTYYADSVKGRFTISRDNAKNTVYLQMNSLKPEDTAVYYCAAEQDPWTSRYVFFASRYDYWGQGTQVTVSS	low polyreactivity
QVQLVESGGGLVQAGGSLRLSCAASGSTFVPNAMGWYRQAPGKERELVATINYADSVKGRFTISRDNAKNTVYLQMNSLKPEDTAVYYCATETAVYLVWGTALDYWGQGTQVTVSS	low polyreactivity
QVQLVESGGGLVQAGGSLRLSCAASGSTFVPNAMGWYRQAPGTERELVAAITVDGDDTYYADSVKGRFTISRDNAKNTVYFQMNSLKPEVTAVYYCKADPDVPFFSWLTGRGTYDYWGQGTQVTVSS	low polyreactivity
QVQLVESGGGLVQAGGSLRLSCAASGSTFVPNDMGGYRQAPGKERELVAAISYSGGSTYYADSVKGRFTISRDNAKNTVYLQMNSLKPEDTAVYYCAADKYLGELDYWGQGTQVTVSS	low polyreactivity
QVQLVESGGGLVQAGGSLRLSCAASGSTFVPNDMGWYRQAPGKERELVAAISYSGGSTYYADSVKGRFTISRDNAKNTVYLQMNSLKPEDTAVYYCAAEKYLGELDYWGQGTQVTVSS	low polyreactivity
QVQLVESGGGLVQAGGSLRLSCAASGSTFVPNTMGWYRQAPGKERELVADITYSGGSTYYADSVKGRFTISRDNAKNTVYLQMNSLKPEDTAVYYCAAEGTTWYYDMDYWGQGTQVTVSS	low polyreactivity
QVQLVESGGGLVQAGGSLRLSCAASGSTFVPYPMGWYRQAPGKERELVAAISSTGGSTYYADSVKGRFTISRDNAKNTVYLQMNSLKPEDNAVYYCNALAKIRYGQINKGYYRGQGTQVTVSS	high polyreactivity
QVQLVESGGGLVQAGGSLRLSCAASGSTFVQYTMGWYRQAPGKERELVAVITGGDGSTYYADSVKGRFTISRDNAKNTVYLLMNSLKPEDTAVYYCNADVYDYLRGGYEFDYWGQGTQVTVSS	low polyreactivity
QVQLVESGGGLVQAGGSLRLSCAASGSTFVRNAMGWYRQAPGKERELVAAISGSGSRTYYADSVKGRFTISRDNAKNTVYLQMNSLKPEDTAVYYCAARITAHEYDYWGQGTQVTVSS	high polyreactivity
QVQLVESGGGLVQAGGSLRLSCAASGSTFVRNAMGWYRQAPGKERELVAAISTRGGSTSYADSVKGRFTISRDNAKNTVYLQMNCLKPEDTAVYYCAKVHAYSQGIRHGYWGQGTQVTVSS	low polyreactivity
QVQLVESGGGLVQAGGSLRLSCAASGSTFVRNAMGWYRQAPGKERELVAGISTGDKTYYADSVKGRFTISRDNAKNTVYLQMNSLKPEDTAVYYCAASVGTYQTATLDYDSWGQGTQVTVSS	low polyreactivity
QVQLVESGGGLVQAGGSLRLSCAASGSTFVRNAMGWYRQAPGKERELVAGISTGDNTYYADSVKGRFTISRDNAKNTVYLQMNSLKPEDTAVDYCNATKDFSFGLDYWGQGTQVTVSS	low polyreactivity
QVQLVESGGGLVQAGGSLRLSCAASGSTFVRNAMGWYRQPPGKDRELVAAISWRGGSTYYADTVKGRFTISRDNAKNTVYLQMNSLKPEDTAVYYCNKVGTWQGPYDYWGQGTQVTVSS	high polyreactivity
QVQLVESGGGLVQAGGSLRLSCAASGSTFVRYAMGWYRQAPGKERELVAAIRGGGGTYYADSVKGRFTISRDNAKNTVYLQMNSLKPVDTAVYYCAADTYYYYWFAGYTEYDYWGQGTQVTVSS	low polyreactivity
QVQLVESGGGLVQAGGSLRLSCAASGSTFVSNAMGWDRQAPGKERELVAAISSSGGRTSYADSEKGRFTISRDNAKNTVYLQMTSPKPEDTAVYYCAARFKSVDYVQYYYWGQGTQVTVSS	low polyreactivity
QVQLVESGGGLVQAGGSLRLSCAASGSTFVSNAMGWYRQAPGKERELVAAISKGDGNTYYADSVKGRFTISRDNAKNTVYLQMNSLKPEDTAVYYCAATYHYYSRWYDYWGQGTQVTVSS	high polyreactivity

Sequence	polyreactivity (PSR sort gate)
QVQLVESGGGLVQAGGSLRLSCAASGSTFVSYAMGWYRQAPGKESELVAGISWSGTRTYYADSVKGRFTISRDNAKNTVYLQMNSLKPEDTAVYYCAARDSSYNWYGYWGQGTQVTVSS	high polyreactivity
QVQLVESGGGLVQAGGSLRLSCAASGSTFVTNAMVWYRQAPGKERELVAAIDYDSGSTYYADSVKGRFTISRDNAKNTVYLQMNSLIPEDTAVYYCNADEQSEEEWEYYYSYDYWGQGTQVTVSS	high polyreactivity
QVQLVESGGGLVQAGGSLRLSCAASGSTFVTYAMGWYRQAPGKERELVAAISRSGGSTYYADSVKGRFTISRDNAKNTVYLQMNSLKPEDTAVYYCAAVIYPYYSYAHRYDYWGQGTQVTVSS	low polyreactivity
QVQLVESGGGLVQAGGSLRLSCAASGSTFVTYVMGWYRQAPGKERELVADIRRSGGSTYYADSVKGRFTISRDNAKNTVYLQMNSLKPEDTAVYYCAAYQYYYVNEVRRYYYWGQGTQVTVSS	high polyreactivity
QVQLVESGGGLVQAGGSLRLSCAASGSTFVVNAMGWYRPAPGKERELVAAIDGSDGSTYYADSVKGRFTISRDNAKNTVYFQMNSLKPEDTAVYYCAAEVLGRPDVENDYWGQGTQVTVSS	low polyreactivity
QVQLVESGGGLVQAGGSLRLSCAASGSTFVVNDMGWYRQAPGKERELVAAIRSGTSTNYADSVKGRFTISRDNAKNTVYLQMNSLKPEDTAVYYCNAAITQFAWNRYTLIYDYWGQGTQVTVSS	low polyreactivity
QVQLVESGGGLVQAGGSLRLSCAASGSTFVVYAMGWYRQATGKERELVAAISANVGGTYYADSVKGRFTISRDNAKNTVYLQMNSLKPEVTAVYYCAADYAYNYFWRPGDYWGQGTQVTVSS	low polyreactivity
QVQLVESGGGLVQAGGSLRLSCAASGSTFVWNAMGWSRQAPGKERQLVAAIDSGGSTNYADSVKGRFTISRDNAKNTVYLQMNSLKPEDTAVYYCATDQGYRYLKIYVYGDAFDYWGQGTQVTVSS	low polyreactivity
QVQLVESGGGLVQAGGSLRLSCAASGSTFVWYAMGWYRQAPGKEREFVAAITNSGGSTYYADSVKGRFTISRDNAKNTVYLQMNSLKPEDTAVDYCAKDRYYYRGAYHEYNYWGQGTQVTVSS	low polyreactivity
QVQLVESGGGLVQAGGSLRLSCAASGSTFVYAMAWYSQAPGKERELVAAITTGDSTYYADSVKGRFTISRDNAKNTVYLQMNSLKPEDTAVYYCAAQWYTRYGEYGYWGQGTQVTVSS	low polyreactivity
QVQLVESGGGLVQAGGSLRLSCAASGSTFVYNALGWDRQAPGKERELVAAITRRGGTTYYADSVKGRFTMSRDNAKNTVYLQMNSLKQEDTAVYYCAARTRGTAYNYSGQGTQVTVSS	high polyreactivity
QVQLVESGGGLVQAGGSLRLSCAASGSTFVYNAMGWSRQAPGKERELVAVITYRGGRTYYADSVKGRFTISRDNAKNTVYLQINSLKPEDTAVYYCAKRVYGSKVRGYDYWGQGTQVTVSS	high polyreactivity
QVQLVESGGGLVQAGGSLRLSCAASGSTFVYNAMGWYRQAPGKERELVAAITSRGGSTDYADSVKGRFTISRDNAKNTVYLQMNSLKPEYTSVYYCAADYSHTGSRYYQEGDYWGQGTQVTVSS	low polyreactivity
QVQLVESGGGLVQAGGSLRLSCAASGSTFVYYALGWYRPSPGKERELVARITRSGGSTYYADSVKGRFTISRDNAKNTVYLQMNSLKPEDTAVYYCAAEQSVYFLVFTGVKFDYWGQGSQVTVSS	low polyreactivity
QVQLVESGGGLVQAGGSLRLSCAASGSTFVYYAMGWYRQAPGKERELVAAISRSGGNTYYADSVKGRFTISRDNAKNTVYLQMNSLKPEDTAVYYCAARSYGVQYYYWGQGTQVTVSS	high polyreactivity
QVQLVESGGGLVQAGGSLRLSCAASGSTFVYYAMGWYRQAPGKERELVAAISWSSDSTYYADSEKGRFTISRDNAKNTVYLQMNSLKPEDTAVYYCARSDGRQSYWTDFSTDYYFWGQGTQVTVSS	low polyreactivity
QVQLVESGGGLVQAGGSLRLSCAASGSTFVYYAMGWYRQAPGKERELVARITRGGGSTNYADSLKARFTISRDNAKNTVYLHMNSLKPEDTAVYYCAKRRKVTYDYWGQGTQVSVSS	high polyreactivity
QVQLVESGGGLVQAGGSLRLSCAASGSTFWDYAMGWYRPAPGKERELVAAISTSGGSTYYADSVKGRFTISRDNAKNTVYLQMNSLKPEDPAVYYFAAGRVRRRVWYNYWGQGTQVTVSS	high polyreactivity
QVQLVESGGGLVQAGGSLRLSCAASGSTFWFNAMGWYRQAPGKERELVAAIDSNTGSTSYADSVKGRFTISRDNAKNTVYLQMNSLIPEDTAVYYCNADYDFAKDRGDYWGQGTQVTVSS	low polyreactivity
QVQLVESGGGLVQAGGSLRLSCAASGSTFWFSAMGWYRQEPGKERELVAAITWSGGRTYYADSVKGRFTISRDNAKNTVYLQLNSLKPEDTAVYYCNKAYPQFGPLDDWGQGTQVTVSS	low polyreactivity
QVQLVESGGGLVQAGGSLRLSCAASGSTFWFYAMGWYRQAPGKERELVAAITRGGSTYYADSVKGRFSISRDNAKNTVYLQMNSLKPEDTAVYYCAAEVGWSRYKWLEYWGQGTQVTVSS	low polyreactivity
